Data from the DeepSol protein solubility set.

Assay: soluble on expression in E. coli; label from the status in PepcDB or PDB records

Sequence | soluble on expression in E. coli
MVIMVNTEYIPGKRIVKVFGTIWGITVRSRGLGGNLVAGLRSLAGGEIKEYTKMLSDARNTAMERLQSAAEQIGANAVINVRFDSSDIGQVMTEIVAYGTAVLVE | soluble
MIDTPDLETRAAPEDHHALRLWLRMLTCCNLIESEIRSRLRTEFDTTLPRFDLMAQLQRAPKGMKMGELSRHMMVTNGNITGITDQLEKEGLVVRTKVESDRRSSVLKLTPQGKRTFARMARAHESWVTGMLDDLPEASRHAMYKALGELKLQVVAHRALAQRDGAS | not soluble
MSNENHEELNDQLIVRREKVDTLREEGIDPFGEKFIRSISPEEIETKFADKSKEELEEAAIEVSVAGRIMTKRVKGKVGFTHIQDRFHQLQIYIRKDAIGEDAYAVFKLADLGDIIGIKGTIFRTNTGELSVKATEFTLLSKSLRPLPDKYHGLKDVEQRYRQRYLDLITNEESQNRFVMRSKILKYTRDYMDNQGFLEVETPVLHTIAGGAAAKPFITHHNALDMELYLRIALELHLKRLIVGGMDKVYEIGRVFRNEGTSTRHNPEFTMLESYAAYEDYEDVMDLVEGLVSTVCKQVNGTTEITYGEYKVDLTPNWRRIHMADAVKEYVGVDFWNVTSDEEARELAKKHDVPVTEHMTYGHILNEFFETYVEEKLIQPTFVYGHPVEISPLAKKNKEDERFTDRFELFIVGREHANAFSELNDPIDQRERFEAQMKEREQGNDEAHGMDADFLEALEYGLPPTGGLGIGIDRLVMLLTDAPSIRDILLFPTMKHRD | not soluble
MLNRIIEHMNAHHVEDMKGLLKKFGQVHHAENVAFKSVDPQGIVIGYNHNQTLRIEFNHEVKDPKDYKNAIIELCQSVEKTHDLKGVEEEVKAFKESFDSVCLATLHPNGHVVCSYAPLMSDGKQYYIYVSEVAEHFAGLKNNPHNVEVMFLEDESKAKSAILRKRLRYKTNARFIERGAEFDKAFDSFIEKTGGAGGIKTIRAMQDFHLIALDFKEGRFVKGFGQAYDILGDKIAYVGDKGNPHNFAHKK | not soluble
VREVCSEQAETGPCRAMISRWYFDVTEGKCAPFFYGGCGGNRNNFDTEEYCMAVCGSA | soluble
IHFTTEVITSRIEPANRYVAEKLRITPGQDILYLERLRSIGDEKAMLIENRINIELCPGIVEIDFNQHNLFPTIESLSKRKIRYSESRYAARLIGNERGHFLDISEDAPVLHLEQLVFFSRELPVEFGNVWLKG | not soluble
MKRSAFFISDGTGITAETLGQSLLAQFENITFNKFTRPYIDSVEKARAMVQQINNAADKDDVRPIIFDTIVNQDIREILATSNGFMIDIFSTFLAPLEQELSSHSSYSVGKSHSIGHNSNYMERIEAVNFALDNDDGARTHYYDKADIILVGVSRCGKTPTCLYMAMQFGIRAANYPLTEDDMERLQLPPALKQHREKLFGLTIDPDRLTAIRHERKPNSRYSSYAQCEFEVREVESLFRRENIPNINSTHFSVEEISAKVLVEKGVERRFKLEHHHHHH | not soluble
MKKILLVLNHSLAGFGSDEQAQLKPSGKKAPLGPGVTLLPFLQKQGAEIVATLYCGDQYYLENEEEVAKKFIGFAKKFHADAVLCGPAMHYPNFGEMAARLACKFNAAGIPAIAAMAEENPAVSHYYQQVPIVKMPKKGGIGLNNSFKQMAQLVVAKANGKETKQLEETSCF | not soluble
MSLTVVLIVDDHHLIRAGAKNLLEGAFSGMRVEGAETVSDALAFLEADNTVDLILLDVNLPDAEAIDGLVRLKRFDPSNAVALISGETDHELIRAALEAGADGFIPKSADPQVLIHAVSLILEGEIFLPRSYLQGGRMAEVATPLDSSERPEQNLTPRQRDVFELMCKGLANKEIARLLDLSESTVKSHVSAIFKQIGTTSRSKTIAIFRQEGVALPSASEDEGHHHHHH | soluble
MKVEEQYLQLFRENREAIDSHSPRVLNEQREKASMAFASKGLPRYGTENYQRTDLSELFGYDYGVNLNRVNFPIRQKEAFHCTLPDLDTDLCYIVNDAYDNEWSRVSELPEGAFVGSLSDFALSHPEIAARYYAQAAAPDHDGIIAFSTMFAQDGFIIYLPDGAVLKNPIQLVQLLRADMEIL | not soluble
MGLCVSKGSTASSPQHYAVRYTEQVTPSPSPSVASTSPSLHDSTAIGSPLARRSVLLPHEVQQAAYQLAMRLNGRAIEDASDRKRLVDATATVHETRLALHRGRGKVDSDLRLSNGRSATYSSLSYCLGEDDENLLAGSALAAGAGNCDHNAAINTRRHAVRMEDGGQMMTVRDYEQTHLYALYQPPNSAEADESTVVLDSWGDGPAVLLRDSHWAESYGTSTHVIERFDKPDATDALARTNAFRAEIENPQTALHANARELETAFLANPAPGDIFSAMPVIAPHLAESTRRRLQECSPRTRNVLAADAARDAYGLDDAQANSPRTTKAILKEAKRLDALGRPPLSW | not soluble
MVTDEAGLLSNAQEEVMNGRLRAIRSSHAVEFAVVTLPSIGDAPLEDFTLKLARQWGVGNEKNNNGLLLVLVLDQRRVRFETGYGLEGYLPDGLLSRIIHDRMIPHFRSGNYAEGLSEGVLAVQQVLDGSYDVKPLEHHHHHH | not soluble
SRVLMEQPGYAQMRKLILFQQYQFEPLFVRQKVGFDIDSVTQSTADALYITPSNQYPMGTTLNTEQRAQIIEWASNQEAWILEDDYDSEFQFAHRPYTSLQGLAAQMGRDERVLYIGSFSKVMFNGLRLGYLVVPESLVDKCLMVKDALSGDTPSHIQAAMADFISEGSLLRHIRKMRRVYKSKHEQVCFSIQHYFGDKVRVISQAAGLHVTLSWQQGIDENTWTQRAKKAGIVMRPVSFYEHPDFKARDWQGVVIGYGNVRLDNIDPLIKRLFELFDV | not soluble
IHPVDSSERVLILGAGRTAEALVRDMRRTGAFVPVGFIDDAVYLRGAKIQGLNVLGRLEEVSTIARETAAKLLVIAIPSLDAAGMQRVVAMCESTGLPFRMVPKLIDVLEGRTLPCQLKEVSIEDLLNRKPVIPDWRLIRSWLSG | not soluble
MGSDKIHHHHHHMGLLTKGSPLTWAETVPHIDYIKKHGIAQFINLYHRLKSRHGDQLKWGDEIEYTIVKFDDANKKVRVSCKAEELLNKLQAEEQVNAMLGTANRFLWRPEFGSYMIEGTPGMPYGGLIACFNIVEANMKLRRQDETCLSISFPSLGVPGFTFPEVAADRKNDDAANSVFWPEQAVFLGHPRFKNLTKNIKGRRGSKVAINVPIFKDTNTPSPFVEDLSALGGPDDTRDAKPDHIYMDHMGFGMGCCCLQVTFQAVNVDEARWLYDQLTPITPILLALSAATPIFRGKLSNVDSRWDIISASVDDRTPEERGLEPLKNSKWVIDKSRYDSTDCYIYPCSVGYNDIPLQYDETIYKQLIDGNIDEPLAKHIAHMFIRDPHQVFRERIEQDDEKSSEHFETIQSSNWMNMRFKPPPPDAPEIGWRVEFRPTEVQLTDFENAAYCCFVVLLTRMMISFRLTYLMPISMVTENMKRAQQKDAVLNQKFLFRKGLAECKSAPENLKGSEKCGPPSQDIEEMSIDEIINGKKNGFPGLISLIRQFLDSADVDVDTRCTISQYLNFISKRATGEINTLAHWTRGFVQSHPAYKHDSDVNDNIVYDLLKKMDAISNGEDHCEKLLGCYRSKTDHAISAAVRKAEEHMIVSSQKRAH | not soluble
MNITNEREDGEKMGSKNYTDVLIAGKIYTLGGLEEETYLQQVASYLNDKIAGLHRQDGFRKQPEDYQNVMTYLNIADDYFKEREHAGLLAVQKEELEKETYRLKHELVSTQMKLEAMRAELEKYKALETLEHSRGKEAEKEEQARK | soluble
MGSDKIHHHHHHMKLRRNMKWNDEGKRIVEMLKLRTPPVGVKFFQEKYEPERAFRPSKYGIKMAVCQAIAFARYIGRTVVLEAEDFGCPPAMLLYGVAEYEGSLKDILVGAQWLKDESCEVAEQKLPLGKYKSFVFGDMTKMAEEPEAVMIFGTPAQIGRLIQAATYFGGAVKANLTAKTASCAEALFPALRGEVAIAVPGAGDRVFAAIQETEMIFAMPYAWTGKILEGLENAGRGANISYPPSPFLMFTPRFPKHYRETAEKFKLV | not soluble
MTLDDDDYIKQMELQRKAFESQFGSLESMGFEDKTKNIRTEVDTRDSSGDEIDNSDHGSDFKDGTIESSNSSDEDSGNETAEENNQDSKPKTQPKVIRFNGPSDVYVPPSKKTQKLLRSGKTLTQINKKLESTEAKEEKEDETLEAENLQNDLELQQFLRESHLLSAFNNGGSGSTNSGVSLTLQSMGGGNDDGIVYQDDQVIGKARSRTLEMRLNRLSRVNGHQDKINKLEKVPMHIRRGMIDKHVKRIKKYEQEAAEGGIVLSKVKKGQFRKIESTYKKDIERRIGGSIKARDKEKATKRERGLKISSVGRSTRNGLIVSKRDIARISGGERSGKFNGKKKSRR | not soluble
MGSDKIHHHHHHMPLDVDHLRIPALPQLFMELQNALGQPHVSYERIAAIVSKDPRLTASLLKLVNSPHFGFSTPIETVSRAVAASGIRRVSALALGTFVLGLYRERPPLVVDIQGFWLHSVGCGIAARLLAQRLGRSDPERFFVAGLLHDMGWLALCSAAPDRAERIVRRIQSTGCSCEEAERLELGTTHAELGATVLKTWNLPAFLIDVVRSHHAPLATVGDNPPVDGALEVHIADAVVKGMGIGGALDARIAPLDLDAVDTLGLSGHDIAAMTNGLVEQSQALSRLLQGD | not soluble
MHLLPELASHHAVSIPELLVSRDERQARQHAWLKHHPVPLVSFTVVAPGPIKDSEVTRRIFNHRVTALRALATKQGWQIQEQAALVSASGPEGMLSIAAPARDLKLATIELEHSHPLGRLWDIDVLTPEGEILSRRDYSLRLAAACCASKAQPSARVEKPIN | not soluble
MSLNDKAILVGVDGSHASYKATWWAANYAKHAGLTLQIVCAYSLPSYAAVSFDATYTAMGDDNAAHNDAQEILSKAKAIADEQGVEASTLIVTGDPASVFVELSRNYNLIVIGNRGKGGLAERLLGTTSSSLPAYAYCPIVVVPYTDDEGNLMHLNNTITKVAVGSDESKWGLKALEIAAAFADSWGAELDVISAVPNMKGSEDEGVMASFQEDLDVRIKPLEAAYPSLKINKQIVPGPAAGALTKASYDHDVVVVGSRGRGGFTGLLLGSTSQGLLQHAVGPVYVVPRKYVEAAETRLDTVPSSPADVTPKAIDDIKGVEEVPVDKAKPEVVEAIETKIDPDREGHHHHHH | soluble
DIQMTQSPSSLSASVGDRVTITCRTSGNIHNYLTWYQQKPGKAPQLLIYNAKTLADGVPSRFSGSGSGTQFTLTISSLQPEDFANYYCQHFWSLPFTFGQGTKVEIKRTGGGGSGGGGSGGGGSGGGGSEVQLVESGGGLVQPGGSLRLSCAASGFDFSRYDMSWVRQAPGKRLEWVAYISSGGGSTYFPDTVKGRFTISRDNAKNTLYLQMNSLRAEDTAVYYCARQNKKLTWFDYWGQGTLVTVSSHHHHHH | soluble
MGSDKIHHHHHHMEIKETYDFSSIVDLWNKNIGTVYPMNLELFKQNYINDRQRKKIMGAFNGEILIGFVIYKQWTYKSGSLKPNHKIGYINSIIVDINFRHQGIGTKLLDAAEEELINSGVKILRCGSDTYHFFPGIPLECLPSEEFFLVRGYKMQDYFYDLIGDVSKVDFKKPSIKDGFKVNVMKPEDRKGLFEFLEKSFSGRWLEEFIEFFQVGMKERDIVLIKYKTSVIGFSHIYDNKSSFIGPPIYWKALLGHNYGGLGPIGIDKTYRKQGLGRLLLYESLQILKKREVKKMVIDWTEKDIINFYGRFNFMPWKAYRKATKEVKDGKG | not soluble
MGSDKIHHHHHHMQLLKELCSIHAPSGNEEPLKDFILEYIRSNAGSWSYQPVIYADNDLQDCIVLVFGNPRTAVFAHMDSIGFTVSYNNHLHPIGSPSAKEGYRLVGKDSNGDIEGVLKIVDEEWMLETDRLIDRGTEVTFKPDFREEGDFILTPYLDDRLGVWTALELAKTLEHGIIAFTCWEEHGGGSVAYLARWIYETFHVKQSLICDITWVTEGVEAGKGVAISMRDRMIPRKKYVNRIIELARQTDIPFQLEVEGAGASDGRELQLSPYPWDWCFIGAPEKDAHTPNECVHKKDIESMVGLYKYLMEKL | not soluble
